Experiment [1] addresses T1, recombinant human CSF-1 (human) (UniProt P09603).
T1 sequence (looked up): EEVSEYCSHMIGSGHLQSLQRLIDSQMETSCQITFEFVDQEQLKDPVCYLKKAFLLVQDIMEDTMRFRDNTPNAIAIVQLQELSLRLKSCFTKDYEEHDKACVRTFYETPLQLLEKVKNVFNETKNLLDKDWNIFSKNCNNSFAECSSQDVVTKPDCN
Description: cell-based or functional assay.

For experiment [2], the target named is T1, recombinant human CSF-1 (human). The experiment in a line: cell-based or functional assay. The source holds these as a separate data set.

This passage reports AML-5 bioassay IC50, Cynomolgus bone marrow bioassay IC50 and Human CD14+ monocytes bioassay IC50 results from US20090155164A1.

Read-outs that look alike come from different tables or passages of the source.

Sequence of c-fms-Fc, human c-fms extracellular domain (residues 1-512) with a C-terminal human Fc domain (P07333 20-512): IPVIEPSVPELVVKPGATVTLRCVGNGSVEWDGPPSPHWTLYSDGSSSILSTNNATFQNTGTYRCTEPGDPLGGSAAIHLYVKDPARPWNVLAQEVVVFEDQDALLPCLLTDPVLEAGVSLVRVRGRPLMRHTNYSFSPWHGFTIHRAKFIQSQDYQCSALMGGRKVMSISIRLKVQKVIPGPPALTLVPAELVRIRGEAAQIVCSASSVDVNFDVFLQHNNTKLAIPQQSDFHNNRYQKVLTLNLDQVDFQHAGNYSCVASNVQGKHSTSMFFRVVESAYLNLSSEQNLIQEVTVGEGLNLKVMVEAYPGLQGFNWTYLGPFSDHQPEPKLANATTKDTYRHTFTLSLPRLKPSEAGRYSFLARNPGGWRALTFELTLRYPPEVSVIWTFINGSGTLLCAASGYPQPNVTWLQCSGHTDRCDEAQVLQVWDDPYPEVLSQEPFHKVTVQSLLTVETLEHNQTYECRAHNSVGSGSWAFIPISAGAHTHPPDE

For “c-fms-Fc, human c-fms extracellular domain (residues 1-512) with a C-terminal human Fc domain (from UniProt P07333 20-512) (Fc fusion)”, in experiment [1], the AML-5 bioassay IC50 is 210 pM, the Cynomolgus bone marrow bioassay IC50 worked out at 617 pM and the Human CD14+ monocytes bioassay IC50 stood at 556 pM. Moreover, in experiment [2], the AML-5 bioassay IC50 turned out to be 0.034 µg/mL, the Cynomolgus bone marrow bioassay IC50 was determined as 0.1 µg/mL and the Human CD14+ monocytes bioassay IC50 was 0.09 µg/mL.
